From patent US20100247515A1
Changes are numbered by the printed parent chain. Blank lines part the entries; values can stand above or below the binder they belong to.

Key:
DOM1h-131-202 [1] = assay: monomer/dimer self-association, AUC sedimentation equilibrium
DOM1h-131-202 [2] = assay: monomer/dimer self-association, AUC sedimentation velocity
DOM1h-131-206 = assay: monomer/dimer self-association, AUC sedimentation equilibrium

Kd (DOM1h-131-202 [1]): 1300 nM
Kd (DOM1h-131-202 [2]): 1000 nM
B1: DOM1h-131-202 (protein)
VH: EVQLLESGGGLVQPGGSLRLSCAASGFTFAHETMVWVRQAPGKGLEWVSHIPPDGQDPFYADSVKGRFTISRDNSKNTLYLQMNSLRAEDTAVYYCALLPKRGPWFDYWGQGTLVTVSS

Kd (DOM1h-131-206): 360000 nM
B2: DOM1h-131-206 (protein)
VH: B1 VH with Y95H
